# Test results as given in the supplement of paper PMC9732359.
# ± gives the uncertainty stated by the source.
# Assay: protein stability index of a GFP-peptide fusion (yeast GPS) (PSI 1-4); higher = more stable; sorted into four equal gates, so the index is relative within each strain
# In short: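 Plasmids isolated from each sorting gate were PCR-amplified and Illumina-sequenced, and barcodes assigned the reads to strains. The gates, four of equal size, were set by GFP/Cherry fluorescence ratio on mid-log cultures in leucine-free medium. These cultures were yeast carrying a pooled library of tiled 17-residue yeast protein peptides fused downstream of GFP on a plasmid that also expresses Cherry. The protein stability index is the sum of every gate's read frequency times its gate number.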
Sequence,protein stability index (doa10∆),protein stability index (pdr5∆),protein stability index (san1∆),protein stability index (ubr1∆)
DTKNLYVIKALQSLTSK [RPS10A],1.75 ± 0.077,1.95 ± 0.077,1.3 ± 0.16,1.34 ± 0.078
SYSGYDIEDALVLNKSS [RET1],2.4 ± 0.059,2.63 ± 0.052,2.18 ± 0.071,2.45 ± 0.047
YVLSTAVEFESVPLRKG [BRR2],1.7 ± 0.043,1.45 ± 0.04,1.93 ± 0.083,1.34 ± 0.036
SDKQRRLLAKDAMIAQR [DIS3],2.29 ± 0.056,2.48 ± 0.049,2.36 ± 0.064,2.46 ± 0.049
SKALLREISNFSKGDAD [SRP72],3.06 ± 0.26,3.41 ± 0.21,,3.77 ± 0.2
KFGYILCVLDYDNIDIQ [RPB7],2.02 ± 0.1,2.08 ± 0.09,3.13 ± 0.11,2.04 ± 0.13
NFEYDLSEYDAIQKKDN [YOR098C/NUP1],2.9 ± 0.2,3.23 ± 0.13,2.15 ± 0.26,3.23 ± 0.064
LQLIIFLRTQFLKLYVL [RGR1],1.25 ± 0.1,1.4 ± 0.11,1.53 ± 0.12,1.41 ± 0.091
VKLQMIKFGGLIIQKIP [ECM29],2.48 ± 0.059,1.89 ± 0.065,1.48 ± 0.07,2.37 ± 0.049
LISNLLFSKNRNEVLES [YCS4],1.96 ± 0.062,2.68 ± 0.06,2.97 ± 0.052,2.65 ± 0.056
GPVVAGINSKSGKPFIA [PUP3],3.18 ± 0.13,3.27 ± 0.11,2.99 ± 0.18,3.05 ± 0.11
LVSNPHEIYGSMPLEQL [SRB4],3.01 ± 0.12,2.26 ± 0.065,3.1 ± 0.19,1.89 ± 0.1
RVRNKDIRKFLDGIYVS [RPL9A],1.91 ± 0.081,2.07 ± 0.087,2.05 ± 0.11,2.23 ± 0.062
QPQHPHYVSTSKISQMA [YLR018C/POM34],1.71 ± 0.037,2.17 ± 0.04,2.34 ± 0.048,2.19 ± 0.026
RILSTLDRELLKPSMSV [RPT3],3.04 ± 0.081,2.73 ± 0.11,3.07 ± 0.073,2.57 ± 0.15
EQKWLIYDKKDHKYVCT [SRB8],2.64 ± 0.29,2.33 ± 0.17,,3.23 ± 0.22
PGTIVLYAERVQDRGLS [RPS3],2.87 ± 0.06,2.99 ± 0.056,2.62 ± 0.085,3.17 ± 0.041
LRSKTSAGRIESNNPSH [SIR4],2.56 ± 0.1,2.48 ± 0.081,2.55 ± 0.18,2.79 ± 0.098
AKKQNRPLPQWIRLRTN [RPL39],1.95 ± 0.063,2.69 ± 0.043,1.26 ± 0.082,2.44 ± 0.043
EVINKEIENATKDIFPL [RPS1A],3.25 ± 0.29,2.74 ± 0.19,2.9 ± 0.13,3.16 ± 0.082
GSFKVVKGTNISEKDLV [RPO31],2.6 ± 0.27,3.36 ± 0.14,3.51 ± 0.044,3.5 ± 0.089
SKASMQKEQNVNNRDSE [YCS4],2.78 ± 0.069,2.98 ± 0.067,2.05 ± 0.076,2.77 ± 0.042
LLNINGSRKVAGILRGY [SMX2],2.64 ± 0.14,1.67 ± 0.12,2.25 ± 0.14,1.52 ± 0.14
ELGEKKNEKLKFQETLL [ISW2],2.86 ± 0.096,2.7 ± 0.1,2.85 ± 0.11,2.88 ± 0.12
NYDIITASSLAHDYNND [YML103C/NUP188],2.64 ± 0.063,2.05 ± 0.075,2.61 ± 0.087,2.33 ± 0.056
FVDENTFQRVCQYMVAC [RPN1],3.09 ± 0.074,2.59 ± 0.072,2.77 ± 0.095,2.99 ± 0.091

Sequence,protein stability index (doa10∆),protein stability index (pdr5∆),protein stability index (san1∆),protein stability index (ubr1∆)
KNAQYHLLVKQGDGLLT [RPN7],1.96 ± 0.1,1.61 ± 0.079,1.12 ± 0.18,1.22 ± 0.08
KRRKLDLNNAVQKRDEV [SMC4],3.41 ± 0.26,2.89 ± 0.12,2.96 ± 0.068,2.96 ± 0.079
VSIKFTNAAFPFHDPEA [ECM29],2.3 ± 0.053,2.11 ± 0.053,1.91 ± 0.068,1.83 ± 0.047
FQDYLTQQAVNLEKNYL [IRR1],2.15 ± 0.11,2.12 ± 0.11,2.02 ± 0.16,1.96 ± 0.11
AVDKVISGYKKFSSTSR [RPT1],3.46 ± 0.27,3.87 ± 0.23,3.21 ± 0.16,3.74 ± 0.14
YHLTKAVKLGDLKKFTS [RPN3],1.77 ± 0.065,1.8 ± 0.062,1.54 ± 0.11,1.78 ± 0.052
DTICQSIQEQIQEFQGN [SNF5],3.27 ± 0.073,3.44 ± 0.1,3.36 ± 0.076,3.6 ± 0.075
KGEQIAIFPYQDPIFGS [ECM29],2.09 ± 0.048,2.28 ± 0.053,2.37 ± 0.067,2.23 ± 0.039
EYKLRSLTLSFIRHVAK [ECM29],2.49 ± 0.068,2.54 ± 0.062,2.77 ± 0.049,2.81 ± 0.046
QSISGTLELSAQFRVPR [SWP82],2.46 ± 0.077,2.77 ± 0.069,2.52 ± 0.084,2.79 ± 0.066
RLMMNSKVGSADTGRDD [RPN11],3.39 ± 0.085,3.36 ± 0.068,3.51 ± 0.058,3.52 ± 0.07
KMNNKPERFMVFQLPTR [RPC53],2.38 ± 0.063,2.75 ± 0.056,2.65 ± 0.085,2.83 ± 0.058
EEEYDETHETNISNAKL [YAR002W/NUP60],3.35 ± 0.073,3.21 ± 0.09,3.44 ± 0.087,3.31 ± 0.065
VVKGLPDISRAVINIRD [RPO31],2.83 ± 0.083,2.23 ± 0.097,2.6 ± 0.23,2.47 ± 0.083
EQLSPQDVLQMLGRAGR [BRR2],3.14 ± 0.27,3.17 ± 0.18,3.48 ± 0.15,3.36 ± 0.12
PSTKVASSAVMNRRKIA [YLR335W/NUP2],1.41 ± 0.071,1.77 ± 0.062,2.14 ± 0.12,2.38 ± 0.073
AKLWFYIYLSHETLARS [RPN3],1.69 ± 0.088,1.4 ± 0.086,1.68 ± 0.15,1.65 ± 0.084
LNARMFLKYYGAHKFLD [SIR2],1.89 ± 0.092,1.68 ± 0.097,1.21 ± 0.12,1.69 ± 0.066
SIMPDLYFYRNPEEVEQ [RPS0B],2.86 ± 0.082,2.95 ± 0.077,2.94 ± 0.063,2.85 ± 0.06
KTKWDRKPMGKRINFEK [POP1],2.84 ± 0.11,3.35 ± 0.075,2.75 ± 0.23,3 ± 0.17
GNVTELYGTAIGARSQG [PRE5],2.11 ± 0.08,2.09 ± 0.15,1.94 ± 0.071,1.31 ± 0.044
RHNKSHTLCNRCGRRSF [RPL37A],3.25 ± 0.045,3.18 ± 0.064,2.82 ± 0.042,3.08 ± 0.039
TGHPKGAAGAWMMNGAL [FAS2],1.98 ± 0.069,1.5 ± 0.052,1.43 ± 0.12,1.66 ± 0.052
TYDMVGGLTKQIKEIKE [RPT6],2.26 ± 0.15,2.52 ± 0.17,1.89 ± 0.23,2.56 ± 0.08
TELVDGRENFVYANNPE [SIR3],3.15 ± 0.1,3.33 ± 0.11,3.05 ± 0.13,2.95 ± 0.083
